Among the data in publication PMC7954740, “Degradation of the low-calorie sugar substitute 5-ketofructose by different bacteria” (Applied Microbiology and Biotechnology, 2021) are Km and kcat values, retold here.

Broadly, the Km is the substrate concentration at which the rate is half of its maximum. A word on the kcat: it is the number of substrate molecules converted per active site and unit of time at saturation.

Test in all cases: purified protein
Data set [1] deals with O=C(CO)[C@@H](O)[C@H](O)C(=O)CO. The data set is classed as biochemical, Gluconobacter oxydans. As to conditions: NADPH co-substrate, pH 7, 35 °C (optimum).
Substrate in data set [2]: O=C(CO)[C@@H](O)[C@H](O)C(=O)CO
The data set is classed as biochemical, Gluconobacter oxydans. As to conditions: NADPH co-substrate, pH 7, 30 °C (optimum).

Substrate in data set [3]: NC(=O)C1=CN([C@@H]2O[C@H](COP(=O)(O)OP(=O)(O)OC[C@H]3O[C@@H](n4cnc5c(N)ncnc54)[C@H](OP(=O)(O)O)[C@@H]3O)[C@@H](O)[C@H]2O)C=CC1
As to conditions: 5-KF co-substrate, pH 7.0, 30 °C, varied: cofactor.

Substrate in data set [4]: O=C(CO)[C@@H](O)[C@H](O)C(=O)CO
As to conditions: NADPH co-substrate, pH 7.0, 30 °C, potassium phosphate.

Substrate in data set [5]: NC(=O)C1=CN([C@@H]2O[C@H](COP(=O)(O)OP(=O)(O)OC[C@H]3O[C@@H](n4cnc5c(N)ncnc54)[C@H](OP(=O)(O)O)[C@@H]3O)[C@@H](O)[C@H]2O)C=CC1
The data set is classed as biochemical, Clostridium pasteurianum. Conditions: 5-KF co-substrate, pH 6, 40 °C (optimum), varied: cofactor.

Substrate in data set [6]: O=C(CO)[C@@H](O)[C@H](O)C(=O)CO
The data set is classed as biochemical, Clostridium pasteurianum. As to conditions: NADPH co-substrate, pH 6, 40 °C (optimum).

For GOX0644 (Gluconobacter oxydans 621H), in data set [1], the Km turned out to be 4000 ± 800 µM and the kcat turned out to be 18.9 ± 1.2 s⁻¹.

B1: GOX1432 (Gluconobacter oxydans 621H) (protein)
chain: MITRETLKSLPANVQAPPYDIDGIKPGIVHFGVGNFFRAHEAFYVEQILEHAPDWAIVGVGLTGSDRSKKKAEEFKAQDCLYSLTETAPSGKSTVRVMGALRDYLLAPADPEAVLKHLVDPAIRIVSMTITEGGYNINETTGAFDLENAAVKADLQNPEKPSTVFGYVVEALRRRRDAGGKAFTVMSCDNLRHNGNVARKAFLGYAKARDPELAKWIEENATFPNGMVDRITPTVSAEIAKKLNAASGLDDDLPLVAEDFHQWVLEDRFANGRPPLEKAGVQLVDDVTDWEHVKIRMLNAGHITLCFPGILVGYENVDDAIEDKDLRGNLENYLNKDVIPTLKAPPGMTLEGYRDSVISRFSNKAMSDQTLRIASDGCSKIQVFWTETVRRAIECKRDLSRIAFGIASYLEMLRGRDEKGGTYESSEPTYGEAQKKLAKADDFESALKLPAFDGWRDLDTSELDQKVIALRKVIREKGVKAAIPA
As to B1, in data set [2], the Km turned out to be 42000 ± 5400 µM and the kcat worked out at 214.6 ± 7.5 s⁻¹.

B2: TM-KFR (Tatumella morbirosei) (protein)
chain: AEQQNFLSELTGSFSSPCNENPTVAMMEEAYRHQGINARYINCDVGKQQLEMAVAGAKAMGWRGFNCSIPNKQAILSYIDEVGTSAKVIGAVNCVIIREGKLTGENTDGKGFVEALKQQIDPEGKKLALLGAGGAARAIAVESALAGVSEITIINRDKAKGEALAELINANTDATATYVEWSSGLKVDKNFDILVNATSVGLDDAEAMPDIDTDSLSEELFVADVIPNPPQTALLRAASDKGCRTLNGLNMLVNQGALNLAYWFDTTADKAPMRKVLQTLFTG
Regarding B2, the Km in data set [3] was 20.4 ± 11.5 µM. Also, in data set [4], the Km is 6400 ± 600 µM and the kcat turned out to be 913.9 ± 85.2 s⁻¹.

B3: CP-AKR (Clostridium pasteurianum DSM 525 = ATCC 6013) (protein)
chain: MVKSIKDVITLNNGVEIPQHGFGVYLITDEEKAYKAINKALEVGYRAFDTAQFYENEPLLGKILNESSLSRDELFITTKVANYNQGYDSTLSTVEQSLKDLRVDQLDLLLIHWPSKKRFFETWRAMEKLYNEKLVKAIGVSNYEIHHLEELISNSDIKPVIDQVESHPYLIQQELKDYVDKNNIAFQAWSPLGRGAVLKDPIIKIIAEQHNKSIAQVIIRWHLQKGNIVIPKSITPSRIEENADVYDFALTEEEMKIIDALNRAERTGDDPDSIYFQM
Take B3: in data set [5], the Km was 12.4 ± 3.8 µM. Moreover, in data set [6], the Km is 1300 ± 200 µM and the kcat amounted to 29.3 ± 4.3 s⁻¹.
